Laboratory results as given in PMC9352680, “A comprehensive thermodynamic model for RNA binding by the Saccharomyces cerevisiae Pumilio protein PUF4”.
Residue numbers refer to the chain shown, from its start. Names may count otherwise.

T1: PUF4 RNA-binding domain (Saccharomyces cerevisiae, UniProt P25339 537-888)
T1 sequence: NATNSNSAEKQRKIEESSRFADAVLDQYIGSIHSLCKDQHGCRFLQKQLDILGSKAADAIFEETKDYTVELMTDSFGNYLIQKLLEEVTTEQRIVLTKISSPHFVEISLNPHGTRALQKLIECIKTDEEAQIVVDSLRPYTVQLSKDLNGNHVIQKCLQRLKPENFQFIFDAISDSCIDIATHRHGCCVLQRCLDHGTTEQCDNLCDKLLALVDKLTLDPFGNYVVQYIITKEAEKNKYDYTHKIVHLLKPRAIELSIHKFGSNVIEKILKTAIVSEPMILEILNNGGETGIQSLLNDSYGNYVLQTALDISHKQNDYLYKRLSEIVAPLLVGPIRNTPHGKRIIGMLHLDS

B1: Id_ii_S2_P5E.4_K5.3_C5.2_[C-2A]_[T-1C]_H5.3_A5.1_F5.1_T5.2_[T11C]_[A12C] (ssRNA)
RNA: UUUGAUUAAUAUGAUAUCGUUCUUUCUACACACUUAUUACCUUCUUUCUCGAUAUCAUAUUAAUCUUU
B2: Id_ii_S2_P5E.4_K5.3_C5.2_[C-2A]_[T-1C]_H5.3_A5.1_F5.1_T5.2_[T11C] (ssRNA)
RNA: B1 RNA with C41A
B3: Id_ii_S2_P5E.4_K5.3_C5.2_[C-2A]_[T-1C]_H5.3_A5.1_F5.1_T5.2_[T11A]_[A12C] (ssRNA)
RNA: B1 RNA with C40A
B4: Id_ii_S2_P5E.4_K5.3_C5.2_[C-2A]_[T-1C]_H5.3_A5.1_F5.1_T5.2_[T11A] (ssRNA)
RNA: B1 RNA with C40A, C41A
B5: Id_ii_S2_P5E.4_K5.3_C5.2_[C-2A]_[T-1C]_H5.3_A5.1_F5.1_T5.2_[A12C] (ssRNA)
RNA: B1 RNA with C40U
B6: Id_ii_S2_P5E.4_K5.3_C5.2_[C-2A]_[T-1C]_H5.3_A5.1_F5.1_T5.2_[A12T] (ssRNA)
RNA: B1 RNA with C40U, C41U
B7: Id_ii_S2_P5E.4_K5.3_C5.2_[C-2A]_[T-1C]_H5.3_A5.1_F5.1_T5.2 (ssRNA)
RNA: B1 RNA with C40U, C41A
B8: Id_ii_S2_P5E.4_K5.3_C5.2_[C-2A]_[T-1A]_H5.3_A5.1_F5.1_T5.2_[T11C]_[A12G] (ssRNA)
RNA: B1 RNA with C29A, C41G
B9: Id_ii_S2_P5E.4_K5.3_C5.2_[C-2A]_[T-1A]_H5.3_A5.1_F5.1_T5.2_[T11C]_[A12C] (ssRNA)
RNA: B1 RNA with C29A
B10: Id_ii_S2_P5E.4_K5.3_C5.2_[C-2A]_[T-1A]_H5.3_A5.1_F5.1_T5.2_[T11C] (ssRNA)
RNA: B1 RNA with C29A, C41A
B11: Id_ii_S2_P5E.4_K5.3_C5.2_[C-2A]_[T-1A]_H5.3_A5.1_F5.1_T5.2_[T11A] (ssRNA)
RNA: B1 RNA with C29A, C40A, C41A
B12: Id_ii_S2_P5E.4_K5.3_C5.2_[C-2A]_[T-1A]_H5.3_A5.1_F5.1_T5.2_[A12C] (ssRNA)
RNA: B1 RNA with C29A, C40U
B13: Id_ii_S2_P5E.4_K5.3_C5.2_[C-2A]_[T-1A]_H5.3_A5.1_F5.1_T5.2_[A12T] (ssRNA)
RNA: B1 RNA with C29A, C40U, C41U
B14: Id_ii_S2_P5E.4_K5.3_C5.2_[C-2A]_[T-1A]_H5.3_A5.1_F5.1_T5.2 (ssRNA)
RNA: B1 RNA with C29A, C40U, C41A
B15: Id_ii_S2_P5E.4_K5.3_C5.2_[C-2A]_H5.3_A5.1_F5.1_T5.2_[T11G]_[A12C] (ssRNA)
RNA: B1 RNA with C29U, C40G
B16: Id_ii_S2_P5E.4_K5.3_C5.2_[C-2A]_H5.3_A5.1_F5.1_T5.2_[T11C]_[A12G] (ssRNA)
RNA: B1 RNA with C29U, C41G
B17: Id_ii_S2_P5E.4_K5.3_C5.2_[C-2A]_H5.3_A5.1_F5.1_T5.2_[T11C]_[A12C] (ssRNA)
RNA: B1 RNA with C29U
B18: Id_ii_S2_P5E.4_K5.3_C5.2_[C-2A]_H5.3_A5.1_F5.1_T5.2_[T11C]_[A12T] (ssRNA)
RNA: B1 RNA with C29U, C41U
B19: Id_ii_S2_P5E.4_K5.3_C5.2_[C-2A]_H5.3_A5.1_F5.1_T5.2_[T11C] (ssRNA)
RNA: B1 RNA with C29U, C41A
B20: Id_ii_S2_P5E.4_K5.3_C5.2_[C-2A]_H5.3_A5.1_F5.1_T5.2_[T11A]_[A12C] (ssRNA)
RNA: B1 RNA with C29U, C40A
B21: Id_ii_S2_P5E.4_K5.3_C5.2_[C-2A]_H5.3_A5.1_F5.1_T5.2_[T11A]_[A12T] (ssRNA)
RNA: B1 RNA with C29U, C40A, C41U
B22: Id_ii_S2_P5E.4_K5.3_C5.2_[C-2A]_H5.3_A5.1_F5.1_T5.2_[T11A] (ssRNA)
RNA: B1 RNA with C29U, C40A, C41A
B23: Id_ii_S2_P5E.4_K5.3_C5.2_[C-2A]_H5.3_A5.1_F5.1_T5.2_[A12G] (ssRNA)
RNA: B1 RNA with C29U, C40U, C41G
B24: Id_ii_S2_P5E.4_K5.3_C5.2_[C-2A]_H5.3_A5.1_F5.1_T5.2_[A12C] (ssRNA)
RNA: B1 RNA with C29U, C40U
B25: Id_ii_S2_P5E.4_K5.3_C5.2_[C-2A]_H5.3_A5.1_F5.1_T5.2_[A12T] (ssRNA)
RNA: B1 RNA with C29U, C40U, C41U
B26: Id_ii_S2_P5E.4_K5.3_C5.2_[C-2A]_H5.3_A5.1_F5.1_T5.2 (ssRNA)
RNA: B1 RNA with C29U, C40U, C41A
B27: Id_ii_S2_P5E.4_K5.3_C5.2_[T-1G]_H5.3_A5.1_F5.1_T5.2_[T11C]_[A12T] (ssRNA)
RNA: B1 RNA with A28C, C29G, C41U
B28: Id_ii_S2_P5E.4_K5.3_C5.2_[T-1G]_H5.3_A5.1_F5.1_T5.2_[T11C] (ssRNA)
RNA: B1 RNA with A28C, C29G, C41A
B29: Id_ii_S2_P5E.4_K5.3_C5.2_[T-1G]_H5.3_A5.1_F5.1_T5.2_[T11A]_[A12C] (ssRNA)
RNA: B1 RNA with A28C, C29G, C40A
B30: Id_ii_S2_P5E.4_K5.3_C5.2_[T-1G]_H5.3_A5.1_F5.1_T5.2_[A12C] (ssRNA)
RNA: B1 RNA with A28C, C29G, C40U
B31: Id_ii_S2_P5E.4_K5.3_C5.2_[T-1G]_H5.3_A5.1_F5.1_T5.2_[A12T] (ssRNA)
RNA: B1 RNA with A28C, C29G, C40U, C41U
B32: Id_ii_S2_P5E.4_K5.3_C5.2_[T-1G]_H5.3_A5.1_F5.1_T5.2 (ssRNA)
RNA: B1 RNA with A28C, C29G, C40U, C41A
B33: Id_ii_S2_P5E.4_K5.3_C5.2_[T-1C]_H5.3_A5.1_F5.1_T5.2_[T11G]_[A12C] (ssRNA)
RNA: B1 RNA with A28C, C40G
B34: Id_ii_S2_P5E.4_K5.3_C5.2_[T-1C]_H5.3_A5.1_F5.1_T5.2_[T11C]_[A12G] (ssRNA)
RNA: B1 RNA with A28C, C41G
B35: Id_ii_S2_P5E.4_K5.3_C5.2_[T-1C]_H5.3_A5.1_F5.1_T5.2_[T11C]_[A12C] (ssRNA)
RNA: B1 RNA with A28C
B36: Id_ii_S2_P5E.4_K5.3_C5.2_[T-1C]_H5.3_A5.1_F5.1_T5.2_[T11C] (ssRNA)
RNA: B1 RNA with A28C, C41A
B37: Id_ii_S2_P5E.4_K5.3_C5.2_[T-1C]_H5.3_A5.1_F5.1_T5.2_[T11A] (ssRNA)
RNA: B1 RNA with A28C, C40A, C41A
B38: Id_ii_S2_P5E.4_K5.3_C5.2_[T-1C]_H5.3_A5.1_F5.1_T5.2_[A12C] (ssRNA)
RNA: B1 RNA with A28C, C40U
B39: Id_ii_S2_P5E.4_K5.3_C5.2_[T-1C]_H5.3_A5.1_F5.1_T5.2_[A12T] (ssRNA)
RNA: B1 RNA with A28C, C40U, C41U
B40: Id_ii_S2_P5E.4_K5.3_C5.2_[T-1C]_H5.3_A5.1_F5.1_T5.2 (ssRNA)
RNA: B1 RNA with A28C, C40U, C41A

Target: T1, PUF4 RNA-binding domain
Test: Mg; RNA-MaP; 20 mM Na-HEPES pH 7.4, 30 mM KOAc, 0.75 mM MgCl2, 0.1% Tween-20, 5% glycerol, 0.1 mg/mL BSA, 2 mM DTT; 25 C; 0.0125-409.6 nM protein
Details: tags: N-His6-TEV cleaved; C-SNAP kept, Cy3B-labelled; label: tethered on chip by stalled RNA polymerase

Row | Binder | Kd [nM]
1 | B1 | > 2300
2 | UCUCUUUGUAUCAUGAUCUCUU (ssRNA) [Ib_S1_P5E.1_K5.1_C5.1_H5.1_A5.1_[T6C]_F5.1_[T9G]_T5.1] | 24.9
3 | B2 | > 2300
4 | B3 | > 2300
5 | B4 | > 2300
6 | B5 | > 2300
7 | B6 | > 2300
8 | B7 | 754
9 | B8 | > 2300
10 | B9 | > 2300
11 | B10 | > 2300
12 | B11 | > 2300
13 | UCUCUUUGUAUCAUCAUCUCUU (ssRNA) [Ib_S1_P5E.1_K5.1_C5.1_H5.1_A5.1_[T6C]_F5.1_[T9C]_T5.1] | 15.5
14 | B12 | > 2300
15 | B13 | > 2300
16 | B14 | 875
17 | B15 | 902
18 | B16 | 674
19 | B17 | 110
20 | B18 | 117
21 | B19 | 136
22 | B20 | 161
23 | B21 | 129

Row | Binder | Kd [nM]
24 | UCUCUUUGUAUAAUCAUCUCUU (ssRNA) [Ic_S1_P5E.1_K5.1_C5.1_H5.1_A5.1_[T6A]_F5.1_[T9C]_T5.1] | 19.7
25 | B22 | 208
26 | B23 | 1310
27 | B24 | 131
28 | B25 | 97.8
29 | B26 | 674
30 | B27 | > 2300
31 | B28 | > 2300
32 | B29 | > 2300
33 | B30 | > 2300
34 | B31 | > 2300
35 | UCUCUUUGUUUUAUUAUCUCUU (ssRNA) [Ia_S1_P5E.1_K5.1_C5.1_H5.1_[A4T]_A5.1_F5.1_T5.1] | 24.7
36 | UCUCUUUGUAUCAUAAUCUCUU (ssRNA) [Ib_S1_P5E.1_K5.1_C5.1_H5.1_A5.1_[T6C]_F5.1_[T9A]_T5.1] | 2.4
37 | B32 | 831
38 | B33 | > 2300
39 | B34 | > 2300
40 | B35 | > 2300
41 | B36 | > 2300
42 | B37 | > 2300
43 | B38 | > 2300
44 | B39 | 1720
45 | B40 | 651
